We go through one molecule from US20250264433A1 (STATE OF ISRAEL MINISTRY OF AGRICULTURE AND RURAL …, published 2025).

The target in assay [1] is T1, EspB of enterohemorrhagic E. coli (EHEC).
T1 construct: also called EHEC EspB
The assay can be described thus: western blot of culture supernatants with mAb-EspB-B7.

In assay [2] the target is T2, Recombinant His-tagged EspB (EspB-His), EPEC O127:H6 strain E2348/69.
T2 construct: also called purified EspB; full-length EspB
The assay can be described thus: ELISA, EspB-coated plate; mAb incubated in 3% milk in PBS.

Assay [3] deals with T2, Recombinant His-tagged EspB (EspB-His), …. The assay can be described thus: ELISA, EspB-coated plate, serially diluted mAb, anti-human IgG-HRP. (In general: In an ELISA, binding on a coated surface is turned into a signal by an enzyme label.)
In assay [4] the target is T3, EspB of Citrobacter rodentium DBS100 (Citrobacter rodentium).
T3 construct: also called C. rodentium EspB
The assay can be described thus: western blot of culture supernatants, mAb-EspB-B7 as primary antibody. (In western blotting, separated proteins are transferred to a membrane and probed.)

In assay [5] the target is T4, EspB homolog of Salmonella enterica serovar Typhimurium (Salmonella enterica serovar Typhimurium, UniProt D0ZV21 1-409).
T4 construct: also called Salmonella EspB homolog
T4 sequence: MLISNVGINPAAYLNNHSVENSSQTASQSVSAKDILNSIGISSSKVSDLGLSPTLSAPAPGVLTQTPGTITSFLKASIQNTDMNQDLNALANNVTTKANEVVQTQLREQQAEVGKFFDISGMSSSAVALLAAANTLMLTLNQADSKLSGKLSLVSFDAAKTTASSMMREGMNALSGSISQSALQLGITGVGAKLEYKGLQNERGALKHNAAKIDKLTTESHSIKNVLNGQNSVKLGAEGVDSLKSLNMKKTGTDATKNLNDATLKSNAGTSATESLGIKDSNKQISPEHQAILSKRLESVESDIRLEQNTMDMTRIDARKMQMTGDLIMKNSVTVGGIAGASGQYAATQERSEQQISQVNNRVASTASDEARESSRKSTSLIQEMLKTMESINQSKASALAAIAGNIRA
The assay is described as above.

For assay [6], the target named is T2, Recombinant His-tagged EspB (EspB-His), …. As to the kind of experiment: ELISA, EspB-coated plate; mAb incubated with NaCl, curve labelled 274mM.
The target is the same in assay [7]. As to the kind of experiment: ELISA, EspB-coated plate; mAb incubated with NaCl, curve labelled 411mM.
Assay [8] has the same target. As to the kind of experiment: ELISA, EspB-coated plate; mAb incubated with NaCl, curve labelled 45.6mM.
Assay [9] has the same target. The assay can be described thus: ELISA, EspB-coated plate; mAb incubated in goat serum with 1% human serum.
Assay [10] shares this target. As to the kind of experiment: ELISA, EspB-coated plate; mAb incubated in horse serum with 1% human serum.
The target is the same in assay [11]. As to the kind of experiment: SPR (Biacore, EspB amine-coupled to a CM5 chip, mAb injected at 10-90 nM, steady-state fit); ELISA was run as well.

B1: mAb-EspB-B7 (antibody, V domains shown)
VH: EVQLLESGGGLVQPGGSLRLSCAASGFTFSHYAMNWVRQAPGKGLEWVSAINSNGDSTYYPDTVKDRFTISRDNSKNTLYLQMNSLRAEDTAVYYCARDRRAGYFDYWGQGTLVTVSS
VL: DIVLTQPPSASGTPGQRVTISCSGSRDNIGKNYVSWYQQLPGTAPKLLIYRNNQRPSGVPDRFSGSKSGTSASLAISGLRSEDEADYYCSAWDTSLNAYVFGPGTQLTVL
notes: also called mAb-B7; anti-EspB antibody
As a reminder, the EC50 (read off the curve) is the concentration that produces a half-maximal response. A word on the Kd: it is the free concentration of one partner at which half of the binding sites on the other are occupied at equilibrium, for simple one-to-one binding. In the case of B1, the binding result in [1] is listed as “binds”; in [4] it was “binds”; in [5] it was “no binding”. In addition, the concentration giving a half-maximal response (EC50 (read off the curve)) in assay [2] was about 5 nM; in assay [3], about 8 nM; in assay [6], about 7 nM; in assay [7] it was about 10 nM; in assay [8], about 3 nM; in [9] it was about 2 nM. Also, in assay [10], the half-maximal effective concentration (EC50 (read off the curve)) is about 3 nM. In assay [11], the Kd was found to be 17.4 nM.
